Residue numbers refer to the chain shown, from its start.
T1: human EpCAM protein (human, UniProt P16422 24-265)
T1 construct: biotinylated in the Octet assays; also called hu EpCAM; biotinylated human EpCAM protein
T1 sequence (looked up): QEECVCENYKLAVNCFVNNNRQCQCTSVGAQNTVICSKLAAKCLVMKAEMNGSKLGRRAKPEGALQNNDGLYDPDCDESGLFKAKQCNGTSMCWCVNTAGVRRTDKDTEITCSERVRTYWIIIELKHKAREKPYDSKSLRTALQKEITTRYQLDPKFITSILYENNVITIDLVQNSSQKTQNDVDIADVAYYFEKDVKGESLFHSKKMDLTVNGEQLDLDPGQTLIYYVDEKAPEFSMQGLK

B1: Llama anti-EpCAM single domain antibody EPL60 (VHH)
VHH: QVQLQESGGGLVQAGGSLRLSCAASEYILSMYRMAWYRQAPGKVRELVADMSSGGTTNYADFVKGRFTISRDNDRNTVYLQMNRLQPEDTAAYYCNVAGRTGPPSYDAFNNWGQGTQVTVSS
notes: E. coli periplasmic extract
B2: Llama anti-EpCAM single domain antibody EPL156 (VHH)
VHH: B1 VHH with A14P, G16A, L20V
notes: E. coli periplasmic extract
B3: Llama anti-EpCAM single domain antibody EPL2 (VHH)
VHH: QVQLQESGGGLVQPGGSLRLSCAASESISSFIAVGWYRQAPGKERELVAGINRSGFTYYTDSVKGRFSISRDNAKNTVLLQMTSLKPEDTAVYYCNAGGLYFSNAYTQGDYWGQGTQVTVSS
notes: E. coli periplasmic extract
B4: Llama anti-EpCAM single domain antibody EPL43 (VHH)
VHH: B3 VHH with P14T
notes: E. coli periplasmic extract
B5: Llama anti-EpCAM single domain antibody EPL145 (VHH)
VHH: QVQLQESGGGLVQAGGSLRLSCAASGFIFRAASMGWFRQSPGNERELVATVSSGGFTNYADSVKGRFTISRDNAKNTVYLQMNSLKPEDTAVYFCGATFVRSDGHHTIYGQGTQVTVSS
notes: E. coli periplasmic extract
B6: Llama anti-EpCAM single domain antibody EPL90 (VHH)
VHH: B5 VHH with G35A, F37Y, T50S, V51I, G55A, G65A, V100L, Y109N
notes: E. coli periplasmic extract
B7: Llama anti-EpCAM single domain antibody EPL118 (VHH)
VHH: B5 VHH with G55D
notes: E. coli periplasmic extract
B8: Llama anti-EpCAM single domain antibody EPL126 (VHH)
VHH: B5 VHH with F37Y, V51I, S52N, V78G, G96A, V100L, H105Q, H106P, T107P, Y109W
notes: E. coli periplasmic extract
B9: Llama anti-EpCAM single domain antibody EPL138 (VHH)
VHH: B5 VHH with G35D, F37Y, S40F, L47S, V48I, V51I, V100L, Y109N
notes: E. coli periplasmic extract
B10: Llama anti-EpCAM single domain antibody EPL164 (VHH)
VHH: QVQLQESGGGLVQAGGSLRLSCAASGFIFRAASMDWYRQSPGTQPELVATISSTGFTNYANSVKGRFTISRDNAKNTVYLQMNSLKPEDTAVYFCGATFLRSDGQHSIYGQGTQVTVSS
notes: E. coli periplasmic extract
B11: Llama anti-EpCAM single domain antibody EPL10 (VHH)
VHH: QVQLQESGGGLVQAGGSLRLSCAASGSVFRANVMGWYRQAPGKQHELVARIDPGGTTTYADPVKGRFTISRDNAKKTVYLQMNSLKPDDTAVYYCNAIILLSGGPKDYWGQGTQVTVSS
notes: E. coli periplasmic extract
B12: Llama anti-EpCAM single domain antibody EPL49 (VHH)
VHH: QVQLQESGGGLVQAGGSLRLSCAPSGRTSSIFGMGWFRQAPGKEREFVASINWSGGSTSYADSVKGRFTISRDNAKNEMYLQMNSLKFEDTAVYVCAAAVLTNKPSWNFWGQGTQVTVSS
notes: E. coli periplasmic extract
B13: Llama anti-EpCAM single domain antibody EPL58 (VHH)
VHH: QVQLQESGGGLVQAGGSLRLSCAASGPIFSDTIRTMGWYRQAAGKQRELVATIASFPSRTNYVDSVKGRFTISRDIAKNTVYLQMDSLKPEDTAVYYCNVDLASIPTKTYWGQGTQVTVSS
notes: E. coli periplasmic extract
B14: Llama anti-EpCAM single domain antibody EPL74 (VHH)
VHH: QVQLQESGGGLVQAGGSLRLSCAASGSIFGINAMGWYRQAPGKQRESVAFITIGGNTNYLDSVKGRFTISRDNAKNTVYLQMNGLKPEDTAVYYCNTNPPLILTAGGLYWGQGTQVTVSS
notes: E. coli periplasmic extract
B15: Llama anti-EpCAM single domain antibody EPL78 (VHH)
VHH: QVQLQESGGGLVQPGGSLRLSCATSANRFNINVMGWYRQAPGQQRELVATINIGGSTDYADSVKGRFTISRDNAKNTVYLQLSDLKPEDTAVYYCNVKLRVSGPTGPNVYWGQGTQVTVSS
notes: E. coli periplasmic extract
B16: Llama anti-EpCAM single domain antibody EPL82 (VHH)
VHH: QVQLQESGGGLVQAGGSLKLSCTASGTILSTMAWYRQAPGKQRELVATISRGGTTNYSDSVKGRFAISRDSTKNTVYLQMNSLKPEDTAVYYCNTPLTDYGMGYNWGQGTQVTVSS
notes: E. coli periplasmic extract
B17: Llama anti-EpCAM single domain antibody EPL83 (VHH)
VHH: QVQLQESGGGLVQAGGSLRLSCAVSGSIFSLNTLAWYRQAPGRQRDLIARITGGGTTVYADSVKGRFTISRDNAKNTVYLQMNSLKPEDTAVYYCNLMVRHPSGSTYEYWGQGTQVTVSS
notes: E. coli periplasmic extract
B18: Llama anti-EpCAM single domain antibody EPL97 (VHH)
VHH: QVQLQESGGGLVQAGGSLRLSCAASGIIFRGTTMGWFRQAPGKQRESVASISPLGTTSYSGSVEGRFTVSRDNAKNTLFLQMNSLKSEDTAVYYCNAIQVTNVGPRVYWGQGTQVTVSS
notes: E. coli periplasmic extract
B19: Llama anti-EpCAM single domain antibody EPL109 (VHH)
VHH: QVQLQESGGGLVQPGGSLRLSCASSGFTLDDYTIGWFRQAPGKEREGVSCISRRDDSTYYADSVKGRFTISRDNAKNTVDLQMISLRPEDTAVYYCAATPRSYTLRCLGKFDFQGQGTQVTVSS
notes: E. coli periplasmic extract
B20: Llama anti-EpCAM single domain antibody EPL117 (VHH)
VHH: QVQLQESGGGLVQAGGSLRLSCAASGNIVRMTNMAWYRQAPGKQREFVATISAGGSTTYVDSVKDRFTISRDNTKNTVYLQMNYLKPEDTAVYYCATGSILTNRGAIPGSWGHGTQVTVSS
notes: E. coli periplasmic extract
B21: Llama anti-EpCAM single domain antibody EPL127 (VHH)
VHH: QVQLQESGGGLVQAGGSLRLSCAAPGFAFNDHAILWFRQAPGKEREGVSEICRDGTTYYTDSVKGRFTISSDNAKNTVYLQMNSVKTDDTAVYYCAVDRRRYYCSGNRAFSSDYYYWGQGTQVTVSS
notes: E. coli periplasmic extract
B22: Llama anti-EpCAM single domain antibody EPL152 (VHH)
VHH: QVQLQESGGGLVQAGGSLRLSCVHSGSIFRASTMAWYRQAPGKQRELVAQIMSGGGTNYAGSVKGRFTISRDNANNTVYLQMNSLKPEDTAVYYCNAAQITSWGPKVYWGQGTQVTVSS
notes: E. coli periplasmic extract
B23: Llama anti-EpCAM single domain antibody EPL189 (VHH)
VHH: QVQLQESGGGLVQPGGSLRLSCAASGRINSINTMGWYRQAPGNQRELVAEITRGGTTNYADSVQGRYAISRDNAKNLVYLQMNSLKPEDTDVYYCNAQTFPTFSRPTGLDYWGQGTQVTVSS
notes: E. coli periplasmic extract
B24: Llama anti-EpCAM single domain antibody EPL31 (VHH)
VHH: QVQLQESGGGLVHTGGSLRLSCAASGDTFLRYAMGWFRQAPGKEREFVAAITWNGGNTDYAGSLKGRFTISRDNTKNTVYLQMNSLKPEDTAVYYCAADLTFGLASSHYQYDYWGQGTQVTVSS
notes: E. coli periplasmic extract
B25: Llama anti-EpCAM single domain antibody EPL159 (VHH)
VHH: QVQLQESGGGLVQAGGSLRLSCAASGFAFGNHWMYWYRQAPGRGRELVASISSGGSTNYVDSVKGRFTISRDNARNTVYLQMYSLKPEDTAVYYCGTSDNWGQGTQVTVSS
notes: E. coli periplasmic extract

Biological target: T1, human EpCAM protein
Test: colorimetric ELISA
Text: (§1) Llamas were immunized with purified EpCAM protein expressed in Expi293 cells. A phage display library for expression of heavy variable antibody domains was constructed from circulating B cells. See van der Linden, de Geus, Stok, Bos,van Wassenaar, Verrips, and Frenken. 2000. J Immunol Methods 240:185-195. Phage clones were screened for binding to EpCAM by expressing anti-EpCAM proteins in E coli, preparing periplasmic extracts, and proteins were screened for human and cynomolgus EpCAM binding activity using a colorimetric ELISA.

Point of comparison: B1, ELISA absorbance 1.1 absorbance. Against it:
- B2 — higher, 3.6 absorbance
- B3 — higher, 2.2 absorbance
- B4 — higher, 1.8 absorbance
- B5 — lower, 0.6 absorbance
- B6 — higher, 1.6 absorbance
- B7 — higher, 3.4 absorbance
- B8 — higher, 3.4 absorbance
- B9 — higher, 3.1 absorbance
- B10 — lower, 0.6 absorbance
- B11 — higher, 2.7 absorbance
- B12 — the same, 1.1 absorbance
- B13 — the same, 1.1 absorbance
- B14 — higher, 1.4 absorbance
- B15 — higher, 3.1 absorbance
- B16 — lower, 0.9 absorbance
- B17 — higher, 2 absorbance
- B18 — higher, 2.5 absorbance
- B19 — lower, 0.4 absorbance
- B20 — lower, 0.9 absorbance
- B21 — lower, 0.4 absorbance
- B22 — higher, 3.4 absorbance
- B23 — higher, 1.3 absorbance
- B24 — lower, 0.6 absorbance

Point of comparison: B15, “Human EpCAM/Control” value 17 ratio. Against it:
- B1 — lower, 10 ratio
- B2 — lower, 16 ratio
- B3 — lower, 15 ratio
- B4 — lower, 13 ratio
- B5 — lower, 3 ratio
- B6 — lower, 10 ratio
- B7 — lower, 5 ratio
- B8 — lower, 5 ratio
- B9 — lower, 3 ratio
- B10 — lower, 7 ratio
- B11 — lower, 12 ratio
- B12 — lower, 8 ratio
- B13 — lower, 8 ratio
- B14 — lower, 10 ratio
- B16 — lower, 4 ratio
- B17 — lower, 3 ratio
- B18 — lower, 8 ratio
- B19 — lower, 5 ratio
- B20 — lower, 4 ratio
- B21 — lower, 5 ratio
- B22 — lower, 4 ratio
- B23 — lower, 12 ratio
- B24 — lower, 7 ratio

Biological target: T2, cynomolgus EpCAM protein (cynomolgus monkey)
T2 construct: biotinylated in the Octet assays; also called cy EpCAM; cynomolgus monkey EpCAM
Test: colorimetric ELISA
Text: as §1

T2 sequence (Q1WER1 24-265): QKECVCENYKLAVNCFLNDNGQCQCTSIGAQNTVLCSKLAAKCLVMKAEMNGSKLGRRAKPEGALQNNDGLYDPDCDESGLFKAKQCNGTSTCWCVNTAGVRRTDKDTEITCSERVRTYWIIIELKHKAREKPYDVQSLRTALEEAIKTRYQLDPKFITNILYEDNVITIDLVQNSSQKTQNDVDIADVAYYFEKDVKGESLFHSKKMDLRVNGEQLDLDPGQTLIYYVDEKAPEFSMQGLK

Point of comparison: B20, “Cynomolgus EpCAM/Control” value 3 ratio. Against it:
- B1 — higher, 33 ratio
- B2 — higher, 17 ratio
- B3 — higher, 24 ratio
- B4 — higher, 27 ratio
- B5 — lower, 2 ratio
- B6 — higher, 10 ratio
- B7 — higher, 4 ratio
- B8 — higher, 4 ratio
- B9 — the same, 3 ratio
- B10 — higher, 34 ratio
- B11 — higher, 9 ratio
- B12 — higher, 4 ratio
- B13 — higher, 4 ratio
- B14 — higher, 5 ratio
- B15 — higher, 11 ratio
- B16 — higher, 5 ratio
- B17 — lower, 2 ratio
- B18 — higher, 5 ratio
- B19 — lower, 2 ratio
- B21 — higher, 11 ratio
- B22 — higher, 4 ratio
- B23 — higher, 8 ratio
- B24 — higher, 6 ratio
- B25 — lower, 2 ratio

Point of comparison: B17, ELISA absorbance 1.1 absorbance. Against it:
- B1 — higher, 3.5 absorbance
- B2 — higher, 4 absorbance
- B3 — higher, 3.6 absorbance
- B4 — higher, 3.8 absorbance
- B5 — lower, 0.4 absorbance
- B6 — higher, 1.7 absorbance
- B7 — higher, 2.9 absorbance
- B8 — higher, 2.8 absorbance
- B9 — higher, 2.7 absorbance
- B10 — higher, 2.8 absorbance
- B11 — higher, 2 absorbance
- B12 — lower, 0.6 absorbance
- B13 — lower, 0.5 absorbance
- B14 — lower, 0.7 absorbance
- B15 — higher, 2 absorbance
- B16 — the same, 1.1 absorbance
- B18 — higher, 1.7 absorbance
- B19 — lower, 0.1 absorbance
- B20 — lower, 0.6 absorbance
- B21 — lower, 0.9 absorbance
- B22 — higher, 2.8 absorbance
- B23 — lower, 0.9 absorbance
- B24 — lower, 0.5 absorbance
- B25 — lower, 0.2 absorbance
